Source: patent publication US20100297662A1

Legend:
[1] = biological target: amylospheroid 42 (Homo sapiens (Human)) (UniProt P05067); test: SPR, ratio of Kd values (40Aβ against 42ASPD)
[2] = biological target: amylospheroid 42 (Homo sapiens (Human)) (UniProt P05067); test: SPR (BIAcore), antigen on CM5 chip, antibody in solution
[3] = biological target: Aβ fibril (42 fibril) prepared from 42Aβ (Homo sapiens (Human)) (UniProt P05067); test: as above
[4] = biological target: monomeric amyloid β40-protein (Aβ1-40); test: as above
[5] = biological target: amylospheroid 42 (Homo sapiens (Human)) (UniProt P05067); test: SPR, ratio of Kd values (42 fibril against 42ASPD)
[6] = biological target: commercially available amyloid precursor protein sAPPα (Sigma) (UniProt P05067); test: competitive ELISA: antibody pre-reacted with sAPPα in solution, then ASPD solid-phase plate
[7] = biological target: amylospheroid 42 (Homo sapiens (Human)) (UniProt P05067); test: SPR (BIAcore 3000), antigen on CM5 chip, antibody in solution
[8] = biological target: monomeric amyloid β42-protein (Aβ1-42); test: as above
[9] = biological target: Aβ fibril prepared from amyloid β40 (Homo sapiens (Human)) (UniProt P05067); test: as above
[10] = biological target: monomeric amyloid β40-protein (Aβ1-40); test: as above
[11] = biological target: ASPD (amylospheroid; Aβ species not stated); test: competitive ELISA: antibody pre-reacted with ASPD in solution, then ASPD solid-phase plate

Sequence of monomeric amyloid β40-protein (Aβ1-40) (peptide, as listed by the source): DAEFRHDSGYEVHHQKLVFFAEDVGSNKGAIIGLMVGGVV
Sequence of monomeric amyloid β42-protein (Aβ1-42) (peptide, as listed by the source): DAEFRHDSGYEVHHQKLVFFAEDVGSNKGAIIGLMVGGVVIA

anti-Aβ antibody 3D6 (US 20030165496 A1), produced as a mouse IgG2b/κ molecule
fold higher affinity with ASPD than with amyloid β-monomer [1]: 34 times | Kd [2]: 0.115 nM | Kd [3]: 0.231 nM | Kd [4]: 3.93 nM | fold higher affinity with ASPD than with amyloid fibril [5]: 2 times

commercially available anti-amyloid β antibody 6E10 (Senetek)
IC50 [6]: 16.1 nM | Kd [7]: 18.3 nM | Kd [8]: 17.2 nM | Kd [9]: 1.33 nM | Kd [10]: 37.3 nM | IC50 [11]: 3.7 nM
